Data set [1] deals with T1, Hop1 K65A,N67Q (Saccharomyces cerevisiae, UniProt P20050 1-605, K65A;N67Q).
T1 sequence: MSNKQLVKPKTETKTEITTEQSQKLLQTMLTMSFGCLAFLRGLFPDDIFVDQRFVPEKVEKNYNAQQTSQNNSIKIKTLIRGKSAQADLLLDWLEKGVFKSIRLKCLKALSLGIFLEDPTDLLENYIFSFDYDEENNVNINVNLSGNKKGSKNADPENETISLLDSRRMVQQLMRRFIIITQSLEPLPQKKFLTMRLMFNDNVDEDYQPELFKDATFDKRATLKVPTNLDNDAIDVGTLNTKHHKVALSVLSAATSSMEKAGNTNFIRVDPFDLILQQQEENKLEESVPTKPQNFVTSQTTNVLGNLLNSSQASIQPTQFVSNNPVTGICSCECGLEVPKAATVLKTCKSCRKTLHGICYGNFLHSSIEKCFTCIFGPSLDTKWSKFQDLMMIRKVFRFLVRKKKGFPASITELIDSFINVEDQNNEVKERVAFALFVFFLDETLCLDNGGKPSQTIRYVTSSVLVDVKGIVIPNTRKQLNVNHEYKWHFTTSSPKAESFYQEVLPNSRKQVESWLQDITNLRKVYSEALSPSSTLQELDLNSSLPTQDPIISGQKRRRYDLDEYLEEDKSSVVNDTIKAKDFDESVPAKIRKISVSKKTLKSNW
Put plainly: MST; 25 nM HJ; EMSA: 25 mM HEPES pH 7.5, 0.5 nM 32P-HJ, 37 C 15 min, 8% PAGE in TBE (25 mM Tris base pH 8.0, 25 mM boric acid, 0.5 mM EDTA) at 4 C; MST: 25 nM 6-FAM HJ, buffer not in material. Conditions: protein: recombinant; tags: His6 (pET28a); label: 5'-6FAM on HJ02; four-way junction of 4 strands. (Mobility shift assays separate free from complexed probe on a gel.)

For data set [2], the target named is T1, Hop1 K65A,N67Q. Put plainly: EMSA; 0.5 nM HJ; EMSA: 25 mM HEPES pH 7.5, 0.5 nM 32P-HJ, 37 C 15 min, 8% PAGE in TBE (25 mM Tris base pH 8.0, 25 mM boric acid, 0.5 mM EDTA) at 4 C; MST: 25 nM 6-FAM HJ, buffer not in material. The following applies: protein: recombinant; tags: His6 (pET28a); label: 5'-32P on HJ02; four-way junction of 4 strands.

B1: Holliday junction (HJ), 6-FAM (structured_DNA)
DNA 1: GACGCTGCCGAATTCTACCAGTGCCTTGCTAGGACATCTTTGCCCACCTGCCGGTTCACCC
DNA 2: TGGGTGAACCTGCAGGTGGGCAAAGATGTCCTAGCAATGTAATCGTCAAAGCTTTATGCCGTT
DNA 3: CAACGGCATAAAGCTTGACGATTACATTGCTAGGACATGCTGTCTAGAGGATCCGACTATCGA
DNA 4: ATCGATAGTCGGATCCTCTAGACAGCATGTCCTAGCAAGGCACTGGTAGAATTCGGCAGCGT
Regarding B1, the equilibrium dissociation constant (Kd) in data set [1] is 495 nM.

B2: Holliday junction (HJ), 32P (structured_DNA)
DNA 1: B1 DNA 1
DNA 2: B1 DNA 2
DNA 3: B1 DNA 3
DNA 4: B1 DNA 4
As for B2, in data set [2], the binding signal was ~1.7 fold lower affinity than WT.

One may read the Kd as the free concentration of one partner at which half of the binding sites on the other are occupied at equilibrium, for simple one-to-one binding.

The values above are taken from publication PMC11797056, “The ATPase activity of yeast chromosome axis protein Hop1 affects the frequency of meiotic crossovers” (Nucleic Acids Research, 2024).
